Measurements taken from paper PMC10458530, “Synthesis and Evaluation of ePSMA-DM1: A New Theranostic Small-Molecule Drug Conjugate (T-SMDC) for Prostate Cancer” (Pharmaceuticals, 2023).
Like-named read-outs stand apart in the source and are kept apart here. Non-standard residues stand in square brackets, D forms with d. Residues, ends and D or L forms follow the SMILES beside them. *: point of attachment. Propanoyl(3-SS-DM1) = COc1cc2cc(c1Cl)N(C)C(=O)C[C@H](OC(=O)[C@H](C)N(C)C(=O)CCSSCCC(=O)*)[C@]1(C)O[C@H]1[C@H](C)[C@@H]1C[C@@](O)(NC(=O)O1)[C@H](OC)/C=C/C=C(\C)C2; DOTA = O=C(O)CN1CCN(CC(=O)O)CCN(CC(=O)*)CCN(CC(=O)O)CC1; EuK = O=C(O)CC[C@H](NC(=O)N[C@@H](CCCCN*)C(=O)O)C(=O)O; Sta = CC(C)C[C@H](N)[C@@H](O)CC(=O)O; Ahx = NCCCCCC(=O)O

Legend:
Ex vivo biodistribution = format: in vivo, mouse; conditions: male, mouse, intravenous, total radioactivity; for tissue uptake at 1 h: 1 h p.i.; for tissue uptake at 4 h: 4 h p.i.; for tissue uptake at 24 h: 24 h p.i.
Experimental: Animal experiments were performed using male BALB/c nude mice (8–10 weeks old; Janvier Labs, Le Genest-Saint-Isle, France). Animals were housed in individually ventilated cages (Blue line IVC, 2 mice per cage) under sterile standard conditions with cage enrichments present and free access to animal chow (Sniff GmbH, Soest, Germany) and water. They were acclimated for 1 week prior to experiments. Mice were subcutaneously inoculated with 4.0 × 10^6 LS174T cells in the right flank diluted in 100 μL of cell suspension […]. The average tumor volume size per group (n = 4) was of 206.2 ± 7.9 mm^3 (average weight of 105.8 ± 7.3 mg) after non-blinded grouping to enable homogenous tumor size distribution. [^111In]In-ePSMA-DM1 was injected intravenously via the tail vein. All experiments were approved by the institutional Animal Welfare Committee and were conducted in accordance to the guidelines of the Revised Dutch Act on Animal Experimentation (WOD).
Mice were intravenously injected with ~1 nmol of [^111In]In-ePSMA-DM1 (5 MBq). Mice (n = 4/timepoint) were euthanized by cervical dislocation at 1, 4 and 24 h p.i. A block group (co-injection of 50 nmol of PSMA-617) was included, and mice were euthanized at 4 h p.i. Organs (blood, heart, lungs, liver, spleen, stomach, intestines, pancreas, kidneys, muscle, skin, bone and prostate) and the tumors were collected in pre-weighed tubes, weighed after organ collection, and measured in the γ-counter, for which the calibration factor was determined by measuring different known activities of In-111. Activity was corrected for decay, and uptake was expressed as percentage of the injected dose per gram of the tissue (% ID/g). The biological half-lives in tissues of [^111In]In-ePSMA-DM1 were determined using a one-phase decay algorithm in GraphPad Prism 9.0 (GraphPad Software, Boston, MA, USA).

[1] = LogD7.4 by shake-flask method; format: physicochemical; conditions: PBS pH 7.4/n-octanol
Experimental: The distribution coefficients (LogD7.4 values) were determined by the shake-flask method, in which 2 μL (~0.5 MBq) of [^111In]In-ePSMA-DM1 was added to an Eppendorf tube containing 1 mL of PBS (0.01 M, pH 7.4)/n-octanol (v/v, 1:1). After vigorous vortexing, the solution was centrifuged at 2500 g for 3 min for phase separation. The n-octanol phase was separated from the PBS phase into a new Eppendorf tube and centrifuged for 15 min. Samples (3 × 10 μL) of the two phases were taken out and measured in the γ-counter. LogD7.4 values were calculated by using the following equation: LogD7.4 = log [(counts in octanol phase)/(counts in aqueous phase)] and the experiment was performed in triplicate.

[2] = BALB/c nude (BALB/c nu/nu), blood, 1 nmol, read-out: uptake in blood
[3] = BALB/c nude (BALB/c nu/nu), heart, 1 nmol, read-out: uptake in heart
[4] = BALB/c nude (BALB/c nu/nu), kidney, 1 nmol, read-out: uptake in kidney
[5] = BALB/c nude (BALB/c nu/nu), liver, 1 nmol, read-out: uptake in liver
[6] = BALB/c nude (BALB/c nu/nu), lung, 1 nmol, read-out: uptake in lung
[7] = BALB/c nude (BALB/c nu/nu), muscle, 1 nmol, read-out: uptake in muscle
[8] = BALB/c nude (BALB/c nu/nu), pancreas, 1 nmol, read-out: uptake in pancreas
[9] = BALB/c nude (BALB/c nu/nu), skin, 1 nmol, read-out: uptake in skin
[10] = BALB/c nude (BALB/c nu/nu), spleen, 1 nmol, read-out: uptake in spleen
[11] = BALB/c nude (BALB/c nu/nu), stomach, 1 nmol, read-out: uptake in stomach
[12] = BALB/c nude (BALB/c nu/nu), tumor, 1 nmol, read-out: uptake in tumor
[13] = BALB/c nude (nu/nu), bone, 1 nmol, read-out: uptake in bone
[14] = BALB/c nude (nu/nu), intestines, 1 nmol, read-out: uptake in intestines
[15] = BALB/c nude (nu/nu), prostate, 1 nmol, read-out: uptake in prostate

## COc1cc2cc(c1Cl)N(C)C(=O)C[C@H](OC(=O)[C@H](C)N(C)C(=O)CCSSCCC(=O)NCCCC[C@H](NC(=O)CN1CCN(CC(=O)O)CCN(CC(=O)O)CCN(CC(=O)O)CC1)C(=O)N[C@@H](CC(=O)O)C(=O)N[C@@H](Cc1ccccc1)C(=O)N[C@@H](CC(C)C)[C@@H](O)CC(=O)NCCCCCC(=O)NCCCC[C@H](NC(=O)N[C@@H](CCC(=O)O)C(=O)O)C(=O)O)[C@]1(C)O[C@H]1[C@H](C)[C@@H]1C[C@@](O)(NC(=O)O1)[C@H](OC)/C=C/C=C(\C)C2 [[^111In]In-ePSMA-DM1, metal not drawn] ({DOTA}-K(Propanoyl(3-SS-DM1))DF[Sta][Ahx]-EuK)
Ex vivo biodistribution; [2]
  tissue uptake at 1 h: 1.43 ± 0.04 %ID/g
  tissue uptake at 4 h: 0.37 ± 0.01 %ID/g
  tissue uptake at 24 h: 0.04 %ID/g
Ex vivo biodistribution; BALB/c nude (BALB/c nu/nu), blood, block (co-injection of PSMA-617), read-out: uptake in blood
  tissue uptake at 4 h: 0.3 ± 0.04 %ID/g
Ex vivo biodistribution; [3]
  tissue uptake at 1 h: 0.65 ± 0.1 %ID/g
  tissue uptake at 4 h: 0.23 ± 0.04 %ID/g
  tissue uptake at 24 h: 0.1 ± 0.02 %ID/g
Ex vivo biodistribution; BALB/c nude (BALB/c nu/nu), heart, block (co-injection of PSMA-617), read-out: uptake in heart
  tissue uptake at 4 h: 0.18 %ID/g
Ex vivo biodistribution; [4]
  tissue uptake at 1 h: 34 ± 2.54 %ID/g
  tissue uptake at 4 h: 31.6 ± 1.78 %ID/g
  tissue uptake at 24 h: 13.2 ± 0.95 %ID/g
Ex vivo biodistribution; BALB/c nude (BALB/c nu/nu), kidney, block (co-injection of PSMA-617), read-out: uptake in kidney
  tissue uptake at 4 h: 24 ± 1.46 %ID/g
Ex vivo biodistribution; [5]
  tissue uptake at 1 h: 0.68 %ID/g
  tissue uptake at 4 h: 0.63 ± 0.02 %ID/g
  tissue uptake at 24 h: 0.39 ± 0.04 %ID/g
Ex vivo biodistribution; BALB/c nude (BALB/c nu/nu), liver, block (co-injection of PSMA-617), read-out: uptake in liver
  tissue uptake at 4 h: 0.56 ± 0.05 %ID/g
Ex vivo biodistribution; [6]
  tissue uptake at 1 h: 1.34 ± 0.18 %ID/g
  tissue uptake at 4 h: 0.4 ± 0.03 %ID/g
  tissue uptake at 24 h: 0.25 ± 0.12 %ID/g
Ex vivo biodistribution; BALB/c nude (BALB/c nu/nu), lung, block (co-injection of PSMA-617), read-out: uptake in lung
  tissue uptake at 4 h: 0.51 ± 0.26 %ID/g
Ex vivo biodistribution; [7]
  tissue uptake at 1 h: 0.3 ± 0.06 %ID/g
  tissue uptake at 4 h: 0.21 ± 0.16 %ID/g
  tissue uptake at 24 h: 0.07 ± 0.01 %ID/g
Ex vivo biodistribution; BALB/c nude (BALB/c nu/nu), muscle, block (co-injection of PSMA-617), read-out: uptake in muscle
  tissue uptake at 4 h: 0.1 ± 0.01 %ID/g
Ex vivo biodistribution; [8]
  tissue uptake at 4 h: 0.17 ± 0.01 %ID/g
  tissue uptake at 24 h: 0.09 ± 0.01 %ID/g
Ex vivo biodistribution; BALB/c nude (BALB/c nu/nu), pancreas, block (co-injection of PSMA-617), read-out: uptake in pancreas
  tissue uptake at 4 h: 0.14 ± 0.02 %ID/g
Ex vivo biodistribution; [9]
  tissue uptake at 1 h: 1.37 ± 0.29 %ID/g
  tissue uptake at 4 h: 0.75 ± 0.12 %ID/g
Ex vivo biodistribution; [10]
  tissue uptake at 1 h: 1.32 ± 0.28 %ID/g
  tissue uptake at 4 h: 0.47 ± 0.08 %ID/g
  tissue uptake at 24 h: 0.27 ± 0.01 %ID/g
Ex vivo biodistribution; BALB/c nude (BALB/c nu/nu), spleen, block (co-injection of PSMA-617), read-out: uptake in spleen
  tissue uptake at 4 h: 0.32 ± 0.02 %ID/g
Ex vivo biodistribution; [11]
  tissue uptake at 1 h: 0.8 ± 0.61 %ID/g
  tissue uptake at 4 h: 0.47 ± 0.32 %ID/g
Ex vivo biodistribution; [12]
  tissue uptake at 4 h: 1.19 ± 0.22 %ID/g
  tissue uptake at 24 h: 0.5 ± 0.14 %ID/g
Ex vivo biodistribution; BALB/c nude (BALB/c nu/nu), tumor, block (co-injection of PSMA-617), read-out: uptake in tumor
  tissue uptake at 4 h: 0.8 ± 0.31 %ID/g
Ex vivo biodistribution; [13]
  tissue uptake at 1 h: 0.73 ± 0.27 %ID/g
  tissue uptake at 4 h: 0.41 ± 0.06 %ID/g
  tissue uptake at 24 h: 0.3 ± 0.03 %ID/g
Ex vivo biodistribution; BALB/c nude (nu/nu), bone, block (co-injection of PSMA-617), read-out: uptake in bone
  tissue uptake at 4 h: 0.33 ± 0.04 %ID/g
Ex vivo biodistribution; [14]
  tissue uptake at 1 h: 0.56 ± 0.19 %ID/g
  tissue uptake at 4 h: 0.45 ± 0.2 %ID/g
  tissue uptake at 24 h: 0.12 ± 0.03 %ID/g
Ex vivo biodistribution; BALB/c nude (nu/nu), intestines, block (co-injection of PSMA-617), read-out: uptake in intestines
  tissue uptake at 4 h: 0.56 ± 0.35 %ID/g
Ex vivo biodistribution; BALB/c nude (nu/nu), pancreas, 1 nmol, read-out: uptake in pancreas
  tissue uptake at 1 h: 0.43 ± 0.11 %ID/g
Ex vivo biodistribution; [15]
  tissue uptake at 1 h: 1.92 ± 0.87 %ID/g
  tissue uptake at 4 h: 0.46 ± 0.19 %ID/g
  tissue uptake at 24 h: 0.16 ± 0.03 %ID/g
Ex vivo biodistribution; BALB/c nude (nu/nu), prostate, block (co-injection of PSMA-617), read-out: uptake in prostate
  tissue uptake at 4 h: 0.4 ± 0.18 %ID/g
Ex vivo biodistribution; BALB/c nude (nu/nu), skin, 1 nmol, read-out: uptake in skin
  tissue uptake at 24 h: 0.44 ± 0.05 %ID/g
Ex vivo biodistribution; BALB/c nude (nu/nu), skin, block (co-injection of PSMA-617), read-out: uptake in skin
  tissue uptake at 4 h: 0.57 ± 0.19 %ID/g
Ex vivo biodistribution; BALB/c nude (nu/nu), stomach, 1 nmol, read-out: uptake in stomach
  tissue uptake at 24 h: 0.05 ± 0.02 %ID/g
Ex vivo biodistribution; BALB/c nude (nu/nu), stomach, block (co-injection of PSMA-617), read-out: uptake in stomach
  tissue uptake at 4 h: 0.3 ± 0.24 %ID/g
Ex vivo biodistribution; BALB/c nude (nu/nu), tumor, 1 nmol, read-out: uptake in tumor
  tissue uptake at 1 h: 2.39 ± 0.29 %ID/g
[1]
  logD: -2.47 ± 0.11
